We go through ten molecules from patent US11279751B2.

The chains are these.
B1: WS1 binder of SEQ ID NO: 48 (designed binder)
chain: MASTSGVSDVPRDLEVVAATPTSLLISWDAPAVPVSKYVIYYWPGALISSMQAFKVPGSKSTATISGLKPGVLYSIVVDALTGDGQGSYVWDPITITYRTEGSGS
B2: WS1 binder of SEQ ID NO: 49 (designed binder)
chain: MASTSGVSDVPRDLEVVAATPTSLLISWDAPAVTVHSYYITYQELQHHSVPQGFQVPGSKSTATISGLKPGVAYQIAVYAFTGPGLPPSDAPPIVIYYRTEGSGS
B3: Adnectin-2 (designed binder)
chain: MASTSGVSDVPRDLEVVAATPTSLLISWDAPAVTVNNYRITYQPLLQGSSIQHFDVPGSKSTATISGLKPGVGYQITVYASTYTHSKAYYSLPISIYYRTEGSGSHHHHHH
B4: Adnectin-4 (designed binder)
chain: MASTSGVSDVPRDLEVVAATPTSLLISWDAPAVTVHSYYITYQELQHHSVPQGFQVPGSKSTATISGLKPGVAYQIAVYAFTGPGLPPSDAPPIVIYYRTEGSGSHHHHHH
B5: Adnectin-6 (designed binder)
chain: MGVSDVPRDLEVVAATPTSLLISWSRPKGSIKYYRITYGETGGNSPVQEFTVPNSQYTATISGLKPGVDYTITVYAVYGYPYQEPHYYPISINYRTEIDKPSQHHHHHH
B6: Adnectin-1 (designed binder)
chain: MASTSGSTHYYKGTADLEVVAATPTSLLISWPPPYYVEGVTVFRITYGETGGNSPVQEFTVPYWTETATISGLKPGVDYTITVYAEMYPGSPWAGQVMDIQPISINYRTEGSGSHHHHHH
B7: Adnectin-7 (designed binder)
chain: MGVSDVPRDLEVVTATPTSLLISWDGPKYYVKYYRITYGETGGNSPVQEFTVPRTDHTATISGLKPGVDYTITVYAVKGQYGPYYGSRPISINYRTEIDKPSQHHHHHH
B8: Adnectin-3 (designed binder)
chain: MASTSGVSDVPRDLEVVAATPTSLLISWDAPAVPVSKYVIYYWPGALISSMQAFKVPGSKSTATISGLKPGVLYSIVVDALTGDGQGSYVWDPITITYRTEGSGSHHHHHH
B9: Adnectin-8 (designed binder)
chain: MGVSDVPRDLEVVAATPTSLLISWSQPGRYVKYYRITYGETGGNSPVQEFTVPNDTYTATISGLKPGVDYTITVYAVYGKYGPYYGYDPISINYRTEIDKPSQHHHHHH
B10: Adnectin-5 (designed binder)
chain: MGVSDVPRDLEVVAATPTSLLISWKYPYETISYYRITYGETGGNSPVQEFTVPYYRSTATISGLKPGVDYTITVYAVEASAPYSDGGSPISINYRTEIDKPSQHHHHHH

The target in one assay is T1, human PXR-GST (Invitrogen) (human) (UniProt O75469).
T1 sequence: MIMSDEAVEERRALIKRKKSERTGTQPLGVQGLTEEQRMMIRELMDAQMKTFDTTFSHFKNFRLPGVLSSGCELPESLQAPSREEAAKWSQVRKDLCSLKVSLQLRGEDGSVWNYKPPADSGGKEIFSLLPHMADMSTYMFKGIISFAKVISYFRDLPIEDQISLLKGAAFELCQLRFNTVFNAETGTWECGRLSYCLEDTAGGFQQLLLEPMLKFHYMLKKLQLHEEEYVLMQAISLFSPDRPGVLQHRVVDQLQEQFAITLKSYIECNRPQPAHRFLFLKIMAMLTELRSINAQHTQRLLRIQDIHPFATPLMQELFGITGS
The experiment in a line: Biacore, binder at 0.5-2 µM over GST-PXR captured by anti-GST antibody. Background: SPR reads the build-up and loss of mass on a sensor chip optically.
B1 registered an RU bound of 146 RU.
B2 returned an RU bound of 81 RU.

In a further assay the target is T1, human PXR-GST (Invitrogen) (human). As to the kind of experiment: SPR (Biacore T100), Adnectin series over human PXR-GST captured by anti-GST antibody.
Usually Kd stands for the free concentration of one partner at which half of the binding sites on the other are occupied at equilibrium, for simple one-to-one binding. Low readings indicate higher affinity, high ones lower affinity. The term koff denotes a measure of how fast the partners let go of each other. A word on the kon: it is the second-order rate constant of association. Higher therefore signals faster complex formation. Molecule B3 showed a Kd of 97.8 nM, a koff of 0.00458 s⁻¹ and a kon of 162000 M⁻¹ s⁻¹.
As for B4, the Kd was 7.8 nM, the koff came out at 0.000168 s⁻¹ and the kon was found to be 21500 M⁻¹ s⁻¹.
B5: the Kd is 1.9 nM, the koff came to 0.00126 s⁻¹ and the kon came out at 680000 M⁻¹ s⁻¹.
For B6, in that order: 11.4 nM, 0.00119 s⁻¹ and 104000 M⁻¹ s⁻¹.
For B7, in that order: 0.31 nM, 8.82e-05 s⁻¹ and 288000 M⁻¹ s⁻¹.
For the molecule B8, the Kd worked out at 2.5 nM, the koff is 0.000378 s⁻¹ and the kon turned out to be 16200 M⁻¹ s⁻¹.
Turning to B9, the dissociation constant (Kd) is 4.4 nM, the koff was 0.000182 s⁻¹ and the kon is 41700 M⁻¹ s⁻¹.
Consider B10, for which the Kd is 5.4 nM, the koff stood at 0.0027 s⁻¹ and the kon was 509000 M⁻¹ s⁻¹.
